Columns and labels:
[1] = target: T1, H3 HA1 subunit (A/Aichi/2/1968, HA1 subunit, Met-1-Arg 345) (Influenza A virus H3N2 A/Aichi/2/1968, UniProt P03437 17-345); experiment: ELISA; HA1 subunit coated 1 µg/ml; recombinant antibody
T1 construct: range 1-345; also called H3N2 A/Aichi/2/1968 HA1 subunit

[2] = target: T1, H3 HA1 subunit (A/Aichi/2/1968, HA1 …); experiment: ELISA; antigen coated 1 µg/ml; recombinant antibody; set-up: concentration or dose not given beside the values

| Binder | binding result [1] | OD 450 nm [2] [OD 450 nm] |
| --- | --- | --- |
| AT10-001 (antibody, V domains shown) VH: EVQLLESGGGLVQPGGSLRLSCAASGFSFSTYAMSWVRQAPGKGLEWVSGISGSGESTYYADSVKGRFTVSRDNSKNTLYLQMNSLRAEDTAVYYCAKQGDHIAWLLRGINFDYWGQGVLVTVSS VL: EIVLTQSPGTLSLSPGERATLSCRASQSVSSSYLAWYQQKPGQAPRLLIYGASTRATGIPDRFSGRGSGTDFTLTISSLEPEDFAVYYCQNYGSPFLFTFGPGTKVDIKR | no binding | 0.01 |
| AT10-004 (antibody, V domains shown) VH: QVQLVQSGAEVRKPGASVKVSCKASGYTFTRHGISWVRQAPGQGLEWMGWISAYTGDTDYAQKFQGRVTMTTDTSTNTAYMELRSLRSDDAAVYYCARLRLQGEVVVPPSQSNWFDPWGQGTLVTVSS VL: EIVLTQSPATLSLYPGERATLSCRASQSVSRYLAWYQQKPGQAPRLLIYDASNRATGIPARFSGSGSGTDFTLTISSLEPEDFAVYYCQQRSNWLKITFGQGTRLEIKG | no binding | 0.096 |
| AT10-002 (antibody, V domains shown) VH: QLQLQESGPRLVKPSETLSLTCSVSGVSISSSNYYWGWIRQPPGKGLEWIGTIYHSGSTYYNPSLKSRLIISVDTSKNQFYLQLTSLTAADSAVYYCATGGGFGWSQTYFGYWGQGTLVTASS VL: QSALTQPASVSGSPGQSITISCTGTSSDVGAYNYVSWYQHHPGKAPKLMIYDVTYRPSGVSTRFSGSKSGNTASLTISGLQAEDEADYYCSSQSRSSTLVIFGGGTKLTVLG | – | -0.006 |
| AT10-003 (antibody, V domains shown) VH: QVHLVQSGAEVRKPGASVKVSCKVSGYTLNELSIHWLRQAPGRGLEWMGSFDPEDGETIYAQKFQGRVTMTGDTSTDTAYLELTSLRSEDTALYYCARGWGAVTSPFDFWGQGTLVTVSS VL: DIVMTQSPLSLPVTPGEPASISCRSSQSLLHSNGHIYFDWYLQKPGQSPQLLIYLVSKRASGVPDRFSGSGSGTDFTLKISRVEAEDVGVYYCMQALETPFTFGPGTKVHIKR | – | 1.28 |

Source: patent publication US20150010566A1 (AIMM THERAPEUTICS B V, published 2015)
